Results taken from patent US20120220489A1.

How the values were obtained:
[1] = target: Erk1-BSA 2.7x peptide-protein conjugate (human; bovine); test: RPA, normal assay
[2] = target: Histone H3 recombinant protein, human, Upstate 14-494 (human) (UniProt P68431); test: RPA, normal assay
[3] = target: Histone H3-BSA 2.7x peptide-protein conjugate (bovine); test: RPA, normal assay
[4] = target: pRb recombinant protein, human, Active Motif 31 128 (human) (UniProt P06400); test: RPA, normal assay
[5] = target: pRb-BSA 1x peptide-protein conjugate (bovine); test: RPA, normal assay
pRb-BSA 1x peptide-protein conjugate (bovine), sequence (P02769 25-607 limits assumed): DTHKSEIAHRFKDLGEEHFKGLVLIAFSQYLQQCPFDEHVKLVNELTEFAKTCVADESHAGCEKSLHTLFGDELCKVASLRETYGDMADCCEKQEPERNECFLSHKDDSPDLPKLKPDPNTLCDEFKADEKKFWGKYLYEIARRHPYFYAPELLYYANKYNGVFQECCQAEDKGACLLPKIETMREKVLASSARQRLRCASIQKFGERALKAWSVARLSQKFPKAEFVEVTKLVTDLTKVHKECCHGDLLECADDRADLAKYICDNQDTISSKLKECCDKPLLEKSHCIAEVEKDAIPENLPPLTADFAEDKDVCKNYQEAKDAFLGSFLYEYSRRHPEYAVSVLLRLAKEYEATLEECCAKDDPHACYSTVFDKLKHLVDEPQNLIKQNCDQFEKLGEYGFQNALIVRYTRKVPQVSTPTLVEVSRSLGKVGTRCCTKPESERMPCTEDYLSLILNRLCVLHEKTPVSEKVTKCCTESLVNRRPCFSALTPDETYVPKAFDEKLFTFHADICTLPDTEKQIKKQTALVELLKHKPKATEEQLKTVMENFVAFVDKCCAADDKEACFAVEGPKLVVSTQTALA

[6] = target: pRb recombinant protein, human, Active Motif 31 128 (human) (UniProt P06400); test: RPA standard curves
[7] = target: ERK1 (p42) active (phospho), human, Active Motif 31 152 (human) (UniProt P27361); test: RPA, competition: +free pRb peptide 10 nM
[8] = target: ERK1 (p44) active (GST tagged), human, Invitrogen PV 3311 (human) (UniProt P27361); test: RPA, competition: +free pRb peptide 10 nM
[9] = target: ERK1 (p44) inactive (GST tagged), human, Invitrogen PV 3312 (human) (UniProt P27361); test: RPA, competition: +free pRb peptide 10 nM
[10] = target: ERK1 (p44), human, Cell Signaling Technology 7416 (human) (UniProt P27361); test: RPA, competition: +free pRb peptide 10 nM
[11] = target: ERK2 (p42), human, Biosource PHO 0104 (human) (UniProt P28482); test: RPA, competition: +free pRb peptide 10 nM
UniProt P28482, sequence (P28482 2-360 limits assumed): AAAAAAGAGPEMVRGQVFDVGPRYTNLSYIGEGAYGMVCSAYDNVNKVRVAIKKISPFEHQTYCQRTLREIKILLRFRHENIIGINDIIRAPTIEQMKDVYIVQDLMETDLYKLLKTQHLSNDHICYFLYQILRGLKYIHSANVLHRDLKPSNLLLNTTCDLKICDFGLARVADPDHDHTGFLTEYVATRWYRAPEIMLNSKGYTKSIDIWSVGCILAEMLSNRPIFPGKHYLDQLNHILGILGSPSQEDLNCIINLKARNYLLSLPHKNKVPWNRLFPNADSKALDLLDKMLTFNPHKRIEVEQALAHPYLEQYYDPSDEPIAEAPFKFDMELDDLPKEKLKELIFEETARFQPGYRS

[12] = target: Erk1-BSA 2.7x peptide-protein conjugate (human; bovine); test: RPA, competition: +free pRb peptide 10 nM
[13] = target: Histone H3 recombinant protein, calf, Roche 11 034 758 001 (calf) (UniProt P68432); test: RPA, competition: +free pRb peptide 10 nM
[14] = target: Histone H3 recombinant protein, human, Upstate 14-494 (human) (UniProt P68431); test: RPA, competition: +free pRb peptide 10 nM
[15] = target: Histone H3-BSA 2.7x peptide-protein conjugate (bovine); test: RPA, competition: +free pRb peptide 10 nM
[16] = target: pErk1/2-BSA 2.7x peptide-protein conjugate (human; bovine); test: RPA, competition: +free pRb peptide 10 nM
pErk1/2-BSA 2.7x peptide-protein conjugate (human; bovine), sequence (P02769 25-607 limits assumed): as the sequence (P02769 25-607 limits assumed) above

[17] = target: pRb recombinant protein, human, Active Motif 31 128 (human) (UniProt P06400); test: RPA, competition: +free pRb peptide 10 nM
[18] = target: pRb-BSA 1x peptide-protein conjugate (bovine); test: RPA, competition: +free pRb peptide 10 nM
[19] = target: ERK1 (p42) active (phospho), human, Active Motif 31 152 (human) (UniProt P27361); test: RPA, competition: +free pRb peptide 100 nM
[20] = target: ERK1 (p44) active (GST tagged), human, Invitrogen PV 3311 (human) (UniProt P27361); test: RPA, competition: +free pRb peptide 100 nM
[21] = target: ERK1 (p44) inactive (GST tagged), human, Invitrogen PV 3312 (human) (UniProt P27361); test: RPA, competition: +free pRb peptide 100 nM
[22] = target: ERK1 (p44), human, Cell Signaling Technology 7416 (human) (UniProt P27361); test: RPA, competition: +free pRb peptide 100 nM
[23] = target: ERK2 (p42), human, Biosource PHO 0104 (human) (UniProt P28482); test: RPA, competition: +free pRb peptide 100 nM
[24] = target: Erk1-BSA 2.7x peptide-protein conjugate (human; bovine); test: RPA, competition: +free pRb peptide 100 nM
[25] = target: Histone H3 recombinant protein, calf, Roche 11 034 758 001 (calf) (UniProt P68432); test: RPA, competition: +free pRb peptide 100 nM
[26] = target: Histone H3 recombinant protein, human, Upstate 14-494 (human) (UniProt P68431); test: RPA, competition: +free pRb peptide 100 nM
[27] = target: Histone H3-BSA 2.7x peptide-protein conjugate (bovine); test: RPA, competition: +free pRb peptide 100 nM
[28] = target: pErk1/2-BSA 2.7x peptide-protein conjugate (human; bovine); test: RPA, competition: +free pRb peptide 100 nM
[29] = target: pRb recombinant protein, human, Active Motif 31 128 (human) (UniProt P06400); test: RPA, competition: +free pRb peptide 100 nM
[30] = target: pRb-BSA 1x peptide-protein conjugate (bovine); test: RPA, competition: +free pRb peptide 100 nM
[31] = target: ERK1 (p42) active (phospho), human, Active Motif 31 152 (human) (UniProt P27361); test: RPA, competition: +free pRb peptide 1000 nM
[32] = target: ERK1 (p44) active (GST tagged), human, Invitrogen PV 3311 (human) (UniProt P27361); test: RPA, competition: +free pRb peptide 1000 nM
[33] = target: ERK1 (p44) inactive (GST tagged), human, Invitrogen PV 3312 (human) (UniProt P27361); test: RPA, competition: +free pRb peptide 1000 nM
[34] = target: ERK1 (p44), human, Cell Signaling Technology 7416 (human) (UniProt P27361); test: RPA, competition: +free pRb peptide 1000 nM
[35] = target: ERK2 (p42), human, Biosource PHO 0104 (human) (UniProt P28482); test: RPA, competition: +free pRb peptide 1000 nM
[36] = target: Erk1-BSA 2.7x peptide-protein conjugate (human; bovine); test: RPA, competition: +free pRb peptide 1000 nM
[37] = target: Histone H3 recombinant protein, calf, Roche 11 034 758 001 (calf) (UniProt P68432); test: RPA, competition: +free pRb peptide 1000 nM
[38] = target: Histone H3 recombinant protein, human, Upstate 14-494 (human) (UniProt P68431); test: RPA, competition: +free pRb peptide 1000 nM
[39] = target: Histone H3-BSA 2.7x peptide-protein conjugate (bovine); test: RPA, competition: +free pRb peptide 1000 nM
[40] = target: pErk1/2-BSA 2.7x peptide-protein conjugate (human; bovine); test: RPA, competition: +free pRb peptide 1000 nM
[41] = target: pRb recombinant protein, human, Active Motif 31 128 (human) (UniProt P06400); test: RPA, competition: +free pRb peptide 1000 nM
[42] = target: pRb-BSA 1x peptide-protein conjugate (bovine); test: RPA, competition: +free pRb peptide 1000 nM
[43] = target: pRb recombinant protein, human, Active Motif 31 128 (human) (UniProt P06400); test: RPA standard curves, mean of duplicate assays
[44] = target: pRb-BSA 1x peptide-protein conjugate (bovine); test: RPA standard curves, mean of duplicate assays
[45] = target: pRb recombinant protein, human, Active Motif 31 128 (human) (UniProt P06400); test: RPA standard curve, assay 1, LOD back-calculated from one-site fit
[46] = target: pRb-BSA 1x peptide-protein conjugate (bovine); test: as above
[47] = target: pRb recombinant protein, human, Active Motif 31 128 (human) (UniProt P06400); test: RPA standard curve, assay 2, LOD back-calculated from one-site fit
[48] = target: pRb-BSA 1x peptide-protein conjugate (bovine); test: as above

Erk1-BSA 2.7x peptide-protein conjugate (human; bovine), sequence (peptide, as listed by the source limits assumed, chain 1 of 2): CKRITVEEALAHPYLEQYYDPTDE
Erk1-BSA 2.7x peptide-protein conjugate (human; bovine), sequence (P02769 25-607 limits assumed, chain 2 of 2): as the sequence (P02769 25-607 limits assumed) above
UniProt P06400, sequence (P06400 whole entry): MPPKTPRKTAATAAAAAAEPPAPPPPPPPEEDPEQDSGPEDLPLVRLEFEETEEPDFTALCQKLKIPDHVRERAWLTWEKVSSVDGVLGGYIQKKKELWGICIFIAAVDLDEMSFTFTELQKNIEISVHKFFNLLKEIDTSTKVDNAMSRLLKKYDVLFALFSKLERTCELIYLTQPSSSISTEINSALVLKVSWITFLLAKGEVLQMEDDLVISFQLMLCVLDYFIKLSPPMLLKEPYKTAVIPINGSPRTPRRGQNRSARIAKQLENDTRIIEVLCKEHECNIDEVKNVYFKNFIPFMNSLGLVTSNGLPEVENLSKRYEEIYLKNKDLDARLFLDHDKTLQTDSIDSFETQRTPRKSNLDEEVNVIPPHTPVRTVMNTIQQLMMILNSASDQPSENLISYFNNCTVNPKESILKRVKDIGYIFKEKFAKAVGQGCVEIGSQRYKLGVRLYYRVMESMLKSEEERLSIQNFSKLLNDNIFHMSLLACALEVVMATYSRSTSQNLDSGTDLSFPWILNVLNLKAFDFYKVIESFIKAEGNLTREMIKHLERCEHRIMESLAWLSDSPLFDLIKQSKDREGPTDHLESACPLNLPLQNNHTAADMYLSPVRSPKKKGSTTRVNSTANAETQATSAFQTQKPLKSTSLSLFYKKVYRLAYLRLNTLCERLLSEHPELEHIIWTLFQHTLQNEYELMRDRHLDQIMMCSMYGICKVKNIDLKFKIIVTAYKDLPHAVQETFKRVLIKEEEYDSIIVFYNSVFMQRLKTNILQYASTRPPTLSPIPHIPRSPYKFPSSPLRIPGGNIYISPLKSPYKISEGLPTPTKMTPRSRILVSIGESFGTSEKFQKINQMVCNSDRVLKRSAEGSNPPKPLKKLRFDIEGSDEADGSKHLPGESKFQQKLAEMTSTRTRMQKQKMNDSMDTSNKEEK
Histone H3-BSA 2.7x peptide-protein conjugate (bovine), sequence (P02769 25-607 limits assumed): as the sequence (P02769 25-607 limits assumed) above

maximum standard curve signal [1]: 0.01 RFI
maximum standard curve signal [2]: 0.01 RFI
maximum standard curve signal [3]: 0.03 RFI
maximum standard curve signal [4]: 0.04 RFI
maximum standard curve signal [5]: 0.47 RFI
signal intensity relative to the pRb-BSA peptide standard curves [6]: 10%
maximum standard curve signal [7]: < 0.01 RFI
maximum standard curve signal [8]: < 0.01 RFI
maximum standard curve signal [9]: < 0.01 RFI
maximum standard curve signal [10]: < 0.01 RFI
maximum standard curve signal [11]: < 0.01 RFI
maximum standard curve signal [12]: < 0.01 RFI
maximum standard curve signal [13]: < 0.01 RFI
maximum standard curve signal [14]: < 0.01 RFI
maximum standard curve signal [15]: 0.02 RFI
maximum standard curve signal [16]: 0.01 RFI
maximum standard curve signal [17]: < 0.01 RFI
maximum standard curve signal [18]: 0.07 RFI
maximum standard curve signal [19]: < 0.01 RFI
maximum standard curve signal [20]: < 0.01 RFI
maximum standard curve signal [21]: < 0.01 RFI
maximum standard curve signal [22]: < 0.01 RFI
maximum standard curve signal [23]: < 0.01 RFI
maximum standard curve signal [24]: < 0.01 RFI
maximum standard curve signal [25]: < 0.01 RFI
maximum standard curve signal [26]: < 0.01 RFI
maximum standard curve signal [27]: 0.02 RFI
maximum standard curve signal [28]: < 0.01 RFI
maximum standard curve signal [29]: < 0.01 RFI
maximum standard curve signal [30]: < 0.01 RFI
maximum standard curve signal [31]: < 0.01 RFI
maximum standard curve signal [32]: < 0.01 RFI
maximum standard curve signal [33]: < 0.01 RFI
maximum standard curve signal [34]: < 0.01 RFI
maximum standard curve signal [35]: < 0.01 RFI
maximum standard curve signal [36]: < 0.01 RFI
maximum standard curve signal [37]: < 0.01 RFI
maximum standard curve signal [38]: < 0.01 RFI
maximum standard curve signal [39]: 0.01 RFI
maximum standard curve signal [40]: < 0.01 RFI
maximum standard curve signal [41]: < 0.01 RFI
maximum standard curve signal [42]: < 0.01 RFI
mean LOD [43]: 0.097 nM
mean LOD [44]: 0.025 nM
LOD [45]: 0.117 nM
LOD [46]: 0.024 nM
LOD [47]: 0.077 nM
LOD [48]: 0.026 nM
Substance: Rb phospho (pRb) Ser807/811 antibody, Cell Signaling Technology #9308
